# B1: CCAAT/Enhancer Binding Protein α (C/EBPα) (natural protein, UniProt P05554 244-358, looked up)
# chain: GPGGSLKGLAGPHPDLRTGGGGGGGAGAGKAKKSVDKNSNEYRVRRERNNIAVRKSRDKAKQRNVETQQKVLELTSDNDRLRKRVEQLSRELDTLRGIFRQLPESSLVKAMGNCA
# Biological target: the molecule itself
# Experiment: FRET or BRET
protein,measurement,value
B1,BRET ratio (Y ÷ B),0.39
